Where a chain is given by its changes, count along the chain named. In names and notes the source's numbering stands.
T1: recombinant mouse IL-17F (SEQ ID NO: 84) (mouse, UniProt Q7TNI7 29-161)
T1 construct: also called mIL-17F; rmIL-17F
T1 sequence: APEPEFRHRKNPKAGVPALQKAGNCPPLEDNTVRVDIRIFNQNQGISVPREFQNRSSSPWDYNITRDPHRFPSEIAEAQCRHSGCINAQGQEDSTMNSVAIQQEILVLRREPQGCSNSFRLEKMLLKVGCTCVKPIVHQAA

T2: recombinant human IL-17B (R&D Systems) (human, UniProt Q9UHF5 21-180)
T2 construct: also called huIL-17B; hu IL-17B
T2 sequence (looked up): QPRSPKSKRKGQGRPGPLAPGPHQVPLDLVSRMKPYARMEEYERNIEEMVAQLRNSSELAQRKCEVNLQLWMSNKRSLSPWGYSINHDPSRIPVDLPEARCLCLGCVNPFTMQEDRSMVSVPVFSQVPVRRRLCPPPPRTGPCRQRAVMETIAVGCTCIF

T3: recombinant human IL-17C (R&D Systems Cat#1234IL/CF) (human, UniProt Q9P0M4 19-197)
T3 construct: also called huIL-17C; hu IL-17C
T3 sequence (looked up): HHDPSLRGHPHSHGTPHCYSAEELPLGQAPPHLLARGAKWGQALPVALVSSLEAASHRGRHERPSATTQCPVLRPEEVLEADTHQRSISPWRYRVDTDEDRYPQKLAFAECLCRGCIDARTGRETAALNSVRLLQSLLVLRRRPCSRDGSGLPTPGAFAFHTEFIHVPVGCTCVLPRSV

T4: recombinant human IL-17D (R&D Systems Cat#1504IL/CF) (human, UniProt Q8TAD2 18-202, limits assumed)
T4 construct: also called huIL-17D; hu IL-17D
T4 sequence (looked up): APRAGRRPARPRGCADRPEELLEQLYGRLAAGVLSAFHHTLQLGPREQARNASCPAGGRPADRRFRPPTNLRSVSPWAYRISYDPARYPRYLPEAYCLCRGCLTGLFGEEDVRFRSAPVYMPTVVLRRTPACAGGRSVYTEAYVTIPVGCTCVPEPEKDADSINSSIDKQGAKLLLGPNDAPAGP

T5: recombinant human IL-17E (R&D Systems Cat#1258-IL/CF) (human, UniProt Q9H293 33-177)
T5 construct: also called huIL-17E; hu IL-17E
T5 sequence (looked up): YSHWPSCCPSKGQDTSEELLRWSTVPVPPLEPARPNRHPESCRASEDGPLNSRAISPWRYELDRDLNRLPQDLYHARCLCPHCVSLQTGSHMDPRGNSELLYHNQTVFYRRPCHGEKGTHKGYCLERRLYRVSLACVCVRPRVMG

T6: recombinant mouse IL-2 (R&D Systems 402-ML-020/CF) (mouse, UniProt P04351 21-169)
T6 construct: also called mIL-2
T6 sequence (looked up): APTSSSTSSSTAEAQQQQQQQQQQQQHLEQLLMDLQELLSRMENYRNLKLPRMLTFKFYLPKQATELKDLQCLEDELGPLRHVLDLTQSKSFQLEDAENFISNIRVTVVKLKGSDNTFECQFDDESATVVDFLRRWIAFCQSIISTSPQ

T7: recombinant mouse TNFα (R&D Systems Cat#410-MT) (mouse, UniProt P06804 80-235)
T7 construct: coated at 0.5 µg/ml; also called mTNFα
T7 sequence (looked up): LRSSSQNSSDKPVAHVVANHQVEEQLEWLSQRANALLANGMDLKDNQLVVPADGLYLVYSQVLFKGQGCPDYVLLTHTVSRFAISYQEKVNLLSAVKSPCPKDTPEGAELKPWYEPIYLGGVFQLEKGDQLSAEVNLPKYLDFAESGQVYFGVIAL

T8: recombinant rat IL-4 (R&D Systems Cat#504-RL/CF) (rat, UniProt P20096 25-147, limits assumed)
T8 sequence (looked up): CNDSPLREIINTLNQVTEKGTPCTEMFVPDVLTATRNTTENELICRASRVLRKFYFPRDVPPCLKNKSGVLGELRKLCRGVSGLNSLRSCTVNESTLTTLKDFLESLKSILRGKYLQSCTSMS

T9: recombinant rat IL-6 (R&D Systems Cat#506-RL-010) (rat, UniProt P20607 25-211)
T9 sequence (looked up): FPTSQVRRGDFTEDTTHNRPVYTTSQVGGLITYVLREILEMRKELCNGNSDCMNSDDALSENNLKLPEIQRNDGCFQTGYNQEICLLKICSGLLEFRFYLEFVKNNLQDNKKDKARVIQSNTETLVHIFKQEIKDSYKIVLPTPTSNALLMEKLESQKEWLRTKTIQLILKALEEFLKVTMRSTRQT

T10: recombinant rat TNFα (R&D Systems Cat#510-RT/CF) (rat, UniProt P16599 80-235)
T10 sequence (looked up): T7 sequence (looked up) with V22A, V58I, N91S, V96I, I117M, Q130L, F143I, A144T

T11: recombinant human IL-17A (SEQ ID NO: 76) (human, UniProt Q16552 24-155, limits assumed)
T11 sequence: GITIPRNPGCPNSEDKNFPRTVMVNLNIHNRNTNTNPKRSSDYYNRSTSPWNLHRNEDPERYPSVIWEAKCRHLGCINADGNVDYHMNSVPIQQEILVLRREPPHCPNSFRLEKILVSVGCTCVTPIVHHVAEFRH

T12: recombinant mouse IL-17A (SEQ ID NO: 83) (mouse, UniProt Q62386 26-158)
T12 sequence: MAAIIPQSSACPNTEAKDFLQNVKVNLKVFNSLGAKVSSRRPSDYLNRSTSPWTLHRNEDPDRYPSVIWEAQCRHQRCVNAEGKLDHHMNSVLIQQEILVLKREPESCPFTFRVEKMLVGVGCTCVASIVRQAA

B1: XAB4 (antibody, human IgG1, kappa, V domains shown)
VH: EVQLVESGGDLVQPGGSLRLSCAASGFTFSSYWMSWVRQAPGKGLEWVANIKQDGSEKYYVDSVKGRFTISRDNAKNSLYLQMNSLRAEDTAVYYCARDRGSLYYWGQGTLVTVSS
VL: AIQLTQSPSSLSASVGDRVTITCRPSQGINWELAWYQQKPGKAPKLLIYDASSLEQGVPSRFSGSGSGTDFTLTISSLQPEDFATYYCQQFNSYPLTFGGGTKVEIKR
notes: also called MB435 N56Q
B2: XAB1 (antibody, human IgG1, kappa, V domains shown)
VH: B1 VH
VL: B1 VL with N30I, W31S, E32A, Q56N
notes: human IgG1/kappa monoclonal antibody; also called parental XAB1; XAB1 IgG

Tests used:
[1] = molecular target: T1, recombinant mouse IL-17F (SEQ ID NO: 84); experiment: ELISA, coated antigen
Method: (§1) A titration of the antibodies of interest on different antigens was carried out.
(§2) Plates were then washed 4 times with PBS/0.05% Tween 20 (Sigma Cat# P7949)/0.02% NaN₃.
(§3) Plates were then washed 4 times with PBS/0.05% Tween 20/0.02% NaN₃. Then, an alkaline phosphatase-conjugated goat anti-human IgG antibody (Sigma Cat# A9544) was added to the wells that received test antibody at a dilution of 1/20000 (100 μl/well) for 2 h 30 min at RT. To the wells, that received mouse mAb, an alkaline phosphatase-conjugated goat anti-mouse IgG antibody (Sigma Cat# A7434) was added at a dilution of 1/10000 (100 μl/well) for 2 h 30 min at RT. An alkaline phosphatase conjugated mouse anti goat IgG antibody (Sigma Cat# A8062) was added to the goat antibodies at a dilution of 1/50000 (100 μl/well) for 2 h 30 min at RT. Plates were then washed 4 times and 100 μl of the substrate (p-nitrophenyl phosphate tablets; Sigma; 5 mg Cat#N9389; 20 mg Cat#. N2765) dissolved in diethanolamine buffer pH 9.8, to give a final concentration of 1 mg/ml, were added to each well.

[2] = molecular target: T2, recombinant human IL-17B (R&D Systems); experiment: ELISA, coated antigen
Method: as §1, §2, §3

[3] = molecular target: T3, recombinant human IL-17C (R&D Systems …); experiment: ELISA, coated antigen
Method: as §1, §2, §3

[4] = molecular target: T4, recombinant human IL-17D (R&D Systems …); experiment: ELISA, coated antigen
Method: as §1, §2, §3

[5] = molecular target: T5, recombinant human IL-17E (R&D Systems …); experiment: ELISA, coated antigen
Method: as §1, §2, §3

[6] = molecular target: T13, recombinant human IL-13 (Novartis) (human, UniProt P35225 35-146, limits assumed); experiment: ELISA, coated cytokine;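 further: antibodies incubated 3 h at room temperature on cytokine-coated plates, binding read out with alkaline phosphatase-conjugated anti-species IgG secondary antibodies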
T13 construct: also called huIL-13
T13 sequence (P35225 35-146 limits assumed): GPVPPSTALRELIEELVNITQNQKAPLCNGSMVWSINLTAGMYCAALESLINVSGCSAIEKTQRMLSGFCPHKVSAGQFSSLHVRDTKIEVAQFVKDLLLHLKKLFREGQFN
Method: (§4) The antibodies of the disclosure were added at 10 μg/ml (100 μl/well) for 3 h at room temperature. […] They were added at 1 or 5 μg/ml, in PBS, 0.02% NaN₃ for 3 h at RT.
(§5) Plates were then washed 4 times with PBS/0.05% Tween 20/0.02% NaN₃. Then, an alkaline phosphatase-conjugated goat anti-human IgG antibody (Sigma Cat# A9544) was added to the wells with human antibodies at a dilution of 1/20000 (100 μl/well). An alkaline phosphatase-conjugated goat anti-mouse IgG antibody (Sigma Cat# A1047) was added to the wells with mouse antibodies at a dilution of 1/10000 (100 μl/well). An alkaline phosphatase-conjugated rabbit anti-goat IgG antibody (Sigma Cat# A7650) was added to the wells with goat antibodies at a dilution of 1/1000 (100 μl/well) and an alkaline phosphatase-conjugated rabbit anti rat-IgG antibody (Sigma Cat# A6066) was added to the wells with rat antibodies at a dilution of 1/20000 (100 μl/well).

[7] = molecular target: T14, recombinant human EGF (Sigma Cat#E9644) (human, UniProt P01133 971-1023); experiment: ELISA, coated cytokine;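 further: antibodies incubated 3 h at room temperature on cytokine-coated plates, binding read out with alkaline phosphatase-conjugated anti-species IgG secondary antibodies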
T14 construct: also called huEGF
T14 sequence (P01133 971-1023 limits assumed): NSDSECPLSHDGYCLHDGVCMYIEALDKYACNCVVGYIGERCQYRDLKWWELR
Method: as §4, §5

[8] = molecular target: T6, recombinant mouse IL-2 (R&D Systems …); experiment: ELISA, coated cytokine;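 further: antibodies incubated 3 h at room temperature on cytokine-coated plates, binding read out with alkaline phosphatase-conjugated anti-species IgG secondary antibodies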
Method: as §4, §5

[9] = molecular target: T7, recombinant mouse TNFα (R&D Systems …); experiment: ELISA, coated cytokine;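 further: antibodies incubated 3 h at room temperature on cytokine-coated plates, binding read out with alkaline phosphatase-conjugated anti-species IgG secondary antibodies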
Method: as §4, §5

[10] = molecular target: T8, recombinant rat IL-4 (R&D Systems …); experiment: ELISA, coated cytokine
Method: as §4, §5

[11] = molecular target: T9, recombinant rat IL-6 (R&D Systems …); experiment: ELISA, coated cytokine
Method: as §4, §5

[12] = molecular target: T10, recombinant rat TNFα (R&D Systems …); experiment: ELISA, coated cytokine
Method: as §4, §5

[13] = molecular target: T11, recombinant human IL-17A (SEQ ID NO: 76); experiment: cell-based or functional assay
[14] = molecular target: T12, recombinant mouse IL-17A (SEQ ID NO: 83); experiment: cell-based or functional assay

Binder	binding result [1]	binding result [2]	binding result [3]	binding result [4]	binding result [5]	binding result [6]	binding result [7]	binding result [8]	binding result [9]	binding result [10]	binding result [11]	binding result [12]	IC50, huGROα secretion by BJ cells; stimulus rhuIL-17A (0.5 nM) [13] [nM]	IC50, KC secretion by CMT-93 cells; stimulus mIL-17A (0.15 nM) [14] [nM]
B1	no binding (tested: 1 µg/ml)	no binding (tested: 1 µg/ml)	no binding (tested: 1 µg/ml)	no binding (tested: 1 µg/ml)	no binding (tested: 1 µg/ml)	no binding (tested: 10 µg/ml)	no binding (tested: 10 µg/ml)	no binding (tested: 10 µg/ml)	no binding (tested: 10 µg/ml)	no binding (tested: 10 µg/ml)	no binding (tested: 10 µg/ml)	no binding (tested: 10 µg/ml)	0.44	7
B2	no binding (tested: 1 µg/ml)	no binding (tested: 1 µg/ml)	no binding (tested: 1 µg/ml)	no binding (tested: 1 µg/ml)	no binding (tested: 1 µg/ml)	no binding (tested: 10 µg/ml)	no binding (tested: 10 µg/ml)	no binding (tested: 10 µg/ml)	no binding (tested: 10 µg/ml)	no binding (tested: 10 µg/ml)	no binding (tested: 10 µg/ml)	no binding (tested: 10 µg/ml)	1.39	128
